According to article PMC3229523, “Identification of Lactoferricin B Intracellular Targets Using an Escherichia coli Proteome Chip” (PLoS ONE, 2011):
Ends that are not written are not given here. * marks the point of attachment. Biotin = O=C1N[C@H]2[C@H](CS[C@H]2CCCCC(=O)*)N1

Columns and labels:
Assay in all cases: peptide or protein array; E. coli proteome chip: purified His-tagged proteins printed in duplicate on Fullmoon slides, blocked with 1% BSA; 10 nM N-terminal biotinylated LfcinB with 1% BSA, room temperature, 1 h; detected with DyLight 649-labeled streptavidin, ratio to DyLight 549-labeled anti-His antibody; ProCAT normalisation, local cut-off; triplicate chips
Conditions in all cases: both partners purified
[1] = target: T1, RfaZ (E. coli K-12, UniProt P27241 1-283)
T1 construct: RfaZ, E. coli K-12
T1 sequence (looked up): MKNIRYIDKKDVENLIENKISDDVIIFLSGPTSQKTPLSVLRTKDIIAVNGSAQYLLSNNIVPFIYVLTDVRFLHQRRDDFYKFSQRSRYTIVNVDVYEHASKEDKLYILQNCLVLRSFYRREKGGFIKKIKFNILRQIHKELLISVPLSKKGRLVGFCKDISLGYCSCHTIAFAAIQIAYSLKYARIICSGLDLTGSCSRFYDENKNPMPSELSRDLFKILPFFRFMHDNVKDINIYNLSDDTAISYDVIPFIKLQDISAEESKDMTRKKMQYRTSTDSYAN

[2] = target: T2, AroD (E. coli K-12, UniProt P05194 1-252)
T2 construct: AroD, E. coli K-12
T2 sequence (looked up): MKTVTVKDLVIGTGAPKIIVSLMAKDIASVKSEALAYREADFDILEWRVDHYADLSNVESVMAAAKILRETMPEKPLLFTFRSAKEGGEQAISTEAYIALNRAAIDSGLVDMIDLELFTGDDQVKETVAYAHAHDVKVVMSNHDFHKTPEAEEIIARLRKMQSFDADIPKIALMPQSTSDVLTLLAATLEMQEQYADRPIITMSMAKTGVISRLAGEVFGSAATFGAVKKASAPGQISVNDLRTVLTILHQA

[3] = target: T3, YefE (E. coli K-12, UniProt P37747 1-367)
T3 construct: YefE, E. coli K-12
T3 sequence (looked up): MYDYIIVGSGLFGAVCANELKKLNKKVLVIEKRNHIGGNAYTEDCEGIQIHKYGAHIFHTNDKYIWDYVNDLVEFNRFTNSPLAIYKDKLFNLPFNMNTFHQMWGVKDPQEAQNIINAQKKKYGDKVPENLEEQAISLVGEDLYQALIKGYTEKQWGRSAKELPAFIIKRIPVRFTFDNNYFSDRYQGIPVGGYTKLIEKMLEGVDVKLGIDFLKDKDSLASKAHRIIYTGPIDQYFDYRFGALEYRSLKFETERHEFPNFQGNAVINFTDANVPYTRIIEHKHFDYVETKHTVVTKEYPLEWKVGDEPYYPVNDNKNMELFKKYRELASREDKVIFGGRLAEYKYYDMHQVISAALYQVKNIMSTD

[4] = target: T4, YgiG (E. coli K-12, UniProt P0AC16 1-122)
T4 construct: YgiG, E. coli K-12
T4 sequence (looked up): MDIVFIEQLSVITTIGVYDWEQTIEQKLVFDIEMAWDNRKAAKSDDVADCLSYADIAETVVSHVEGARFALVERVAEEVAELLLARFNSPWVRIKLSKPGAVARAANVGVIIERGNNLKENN

[5] = target: T5, CreB (E. coli K-12, UniProt P08368 1-229)
T5 construct: CreB, E. coli K-12
T5 sequence (looked up): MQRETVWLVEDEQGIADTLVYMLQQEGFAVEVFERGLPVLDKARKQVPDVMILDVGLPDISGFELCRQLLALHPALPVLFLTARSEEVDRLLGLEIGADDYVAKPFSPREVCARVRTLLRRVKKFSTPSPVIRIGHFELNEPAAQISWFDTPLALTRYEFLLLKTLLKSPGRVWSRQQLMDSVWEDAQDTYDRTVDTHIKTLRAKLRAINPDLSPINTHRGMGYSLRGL

[6] = target: T6, ThiF (E. coli K-12, UniProt P30138 1-251)
T6 construct: ThiF, E. coli K-12
T6 sequence (looked up): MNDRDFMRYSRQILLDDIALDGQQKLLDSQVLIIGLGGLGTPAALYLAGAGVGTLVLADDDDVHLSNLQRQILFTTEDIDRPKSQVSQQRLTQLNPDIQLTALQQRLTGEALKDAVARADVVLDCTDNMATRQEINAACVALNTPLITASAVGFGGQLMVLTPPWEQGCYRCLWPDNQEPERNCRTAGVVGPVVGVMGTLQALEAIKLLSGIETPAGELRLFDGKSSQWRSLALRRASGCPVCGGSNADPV

Measured: binding result

B1: N-terminal biotinylated Lactoferricin B (peptide, UniProt P24627 36-60, looked up)
peptide: Biotin-FKCRRWQWRMKKLGAPSITCVRRAF
modifications: ends and bridges not checked
notes: lactoferricin B (LfcinB), cationic antimicrobial peptide of 25 amino acids; also called biotinylated LfcinB; biotin-labeled LfcinB; source: bought: Kelowna Inc
binds: all assays above
